Experimental data reported in patent publication US9169496B2, “Method for the enzymatic production of butadiene” (Scientist of Fortune, S.A., priority 2011, dated 2015).

Legend:
[1] = Screening for crotyl alcohol phosphorylation activity (pyruvate kinase/lactate dehydrogenase coupled ADP assay); format: biochemical; conditions: 37° C.; for Activity, micromole/min · mg protein: 50 mM crotyl alcohol (cis and trans mixture), 5 mM ATP, 0.05 mg/ml enzyme, pH 7.5; for ADP production in the presence of crotyl alcohol: 50 mM crotyl alcohol
Procedure: The release of ADP that is associated with crotyl alcohol phosphorylation was quantified using the pyruvate kinase/lactate dehydrogenase coupled assay (FIG. 5). The purified 4-methyl-5-(2-hydroxyethyl)thiazole kinases from Escherichia coli (SEQ ID NO:2), Bacillus subtilis (SEQ ID NO:1), Rhizobium leguminosarum (SEQ ID NO:3) were evaluated for their ability to phosphorylate crotyl alcohol releasing ADP. The studied enzymatic reaction was carried out under the following conditions at 37° C.: • 50 mM Tris-HCl pH 7.5 • 10 mM MgCl2 • 100 mM KCl • 5 mM ATP • 0.4 mM NADH • 1 mM Phosphoenolpyruvate • 3 U/ml Lactate dehydrogenase • 1.5 U/ml Pyruvate kinase • 50 mM crotyl alcohol, mixture cis and trans • The pH was adjusted to 7.5
Each assay was started by addition of a particular enzyme at a concentration 0.05 mg/ml and the disappearance of NADH was monitored by following the absorbance at 340 nm.

[2] = Crotonyl-CoA reductase assay, NADPH decrease at 340 nm; format: biochemical; conditions: 5 mM trans crotonyl-CoA, 0.1-0.4 mM NADPH, 0.5-1 mg/ml enzyme, 37° C., pH 7.5
Excerpt: Sequences of short-chain dehydrogenases/reductases inferred from the genomes of prokaryotic organisms were generated by oligonucleotide concatenation to fit the codon usage of E. coli. […] The genes thus synthesized were cloned in a pET25b expression vector and the proteins were produced according to the protocol described in Example 1.

B1: E. coli: purified 4-methyl-5-(2-hydroxyethyl)thiazole kinase from Escherichia coli (SEQ ID NO:2) (protein)
chain: MQVDLLGSAQSAHALHLFHQHSPLVHCMTNDVVQTFTANTLLALGASPAMVIETEEASQFAAIASALLINVGTLTQPRAQAMRAAVEQAKSSQTPWTLDPVAVGALDYRRHFCHELLSFKPAAIRGNASEIMALAGIANGGRGVDTTDAAANAIPAAQTLARETGAIVVVTGEMDYVTDGHRIIGIHGGDPLMTKVVGTGCALSAVVAACCALPGDTLENVASACHWMKQAGERAVARSEGPGSFVPHFLDALWQLTQEVQA
modifications: E. coli
Activity, micromole/min · mg protein [1]: 0.220 micromole/min · mg protein
ADP production in the presence of crotyl alcohol [1]: reproducible and significant increase in ADP production

B2: B. subtilis: purified 4-methyl-5-(2-hydroxyethyl)thiazole kinase from Bacillus subtilis (SEQ ID NO:1) (protein, listed as Bacillus subtilis)
chain: MDAQSAAKCLTAVRRHSPLVHSITNNVVTNFTANGLLALGASPVMAYAKEEVADMAKIAGALVLNIGTLSKESVEAMIIAGKSANEHGVPVILDPVGAGATPFRTESARDIIREVRLAAIRGNAAEIAHTVGVTDWLIKGVDAGEGGGDIIRLAQQAAQKLNTVIAITGEVDVIADTSHVYTLHNGHKLLTKVTGAGCLLTSVVGAFCAVEENPLFAAIAAISSYGVAAQLAAQQTADKGPGSFQIELLNKLSTVTEQDVQEWATIERVTVS
Activity, micromole/min · mg protein [1]: 0.014 micromole/min · mg protein

B3: Short chain alcohol dehydrogenase-like protein from Marinobacter manganoxydans (SEQ ID NO: 14): short-chain dehydrogenase from Marinobacter manganoxydans (Uniprot G6YQS9) (protein)
chain: MNYFLTGGTGFIGRFLVEKLLARGGTVHVLVREQSQDKLDKLRERWGADETQVKAVIGDLTSKNLGIDAKTMKALKGKIDHFFHLAAVYDMGADEEAQQATNIEGTRAAVNAAEAMGAKHFHHVSSIAAAGLFKGIFREDMFEEAEKLDHPYLRTKHESEKVVREECKVPFRIYRPGMVIGHTATGEMDKVDGPYYFFKMIQKIRHALPQWVPTIGVEGGRLNIVPVDFVVNAMDHIAHLEGEDGKCFHLVDTDPYKVGEILNIFSEAGHAPRMGMRIDSRMFGFIPPFIRQSLKNLPPVKRLTSAILDDMGIPPSVMSFINYPTRFDARETERVLKGTGIEVPRLPDYAPVIWDYWERNLDPDLFKDRTLKGTVEGRVCVVTGATSGIGLATAQKLADAGAILVIGARKLERLKEVAAELESRGASVHAYPCDFSDMDACDEFVKTVLDNHGQVDVLVNNAGRSIRRSLDLSFDRFHDFERTMQLNYFGSVRLIMGFAPKMLENRRGHVVNISSIGVLTNAPRFSAYVASKSALDAFSR
modifications: Marinobacter manganoxydans
Activity, μmol/min/mg protein [2]: 7.5 μmol/min/mg protein

B4: Rh. leguminosarum: purified 4-methyl-5-(2-hydroxyethyl)thiazole kinase from Rhizobium leguminosarum (SEQ ID NO:3) (protein, listed as Rhizobium leguminosarum)
chain: MQTRTTPGAMLKAMREKPPLVQCITNYVAMNIAANVLLAAGASPAMVHAAEEAGEFAAIASALTINIGTLSTQWIDGMQAAAKAATSAGKPWVLDPVAHYATAFRRNAVAELLALKPTIIRGNASEIIALAGGESRGQGVDSRDPVEQAEGSARWLAERQRAVVAVTGAVDFVTDGERAVRIEGGSALMPQVTALGCSLTCLVGAFAATAPEDIFGATVAALSTFAIAGEEAALGAAGPGSFSWRFLDALAALDAETLDARARISAA
Activity, micromole/min · mg protein [1]: 0.087 micromole/min · mg protein
ADP production in the presence of crotyl alcohol [1]: reproducible and significant increase in ADP production

B5: Short chain alcohol dehydrogenase-like protein from Marinobacter algicola (SEQ ID NO: 16): short-chain dehydrogenase from Marinobacter algicola (Uniprot A6EUH6) (protein)
chain: MNYFLTGGTGFIGRFLVEKLLARGGTVHVLVREQSQEKLDKLRERWGADESRVKAVIGDLTSPNLGIDAKTMKSLKGNIDHFFHLAAVYDMGADEKSQQATNIEGTHSAVNAAAAMEAGCFHHVSSIAAAGLFKGTFREDMFEEAEKLDHPYLLTKHESEKVVRESCKVPFRIYRPGMVVGHSKTGEMDKVDGPYYFFKMIQKIRHALPQWVPTIGIEGGRLNIVPVDFVVNAMDHIAHLKGEDGNCFHLVDSDPYKVGEILNIFSEAGHAPRMAMRIDSRMFGFVPPFIRQSLKNLPPVKRLTTALLDDMGIPPSVLSFINYPTRFDARETERVLKDTGIVVPRLESYAAVLWDFWERNLDPDLFKDRTLRGTVEGKVCVITGGTSGIGLATAQKLADAGAILVIGARKKERLMEVAAELEARGGNVHAYQCDFADMDDCDRFVKTVLDNHGHVDVLVNNAGRSIRRSLALSFDRFHDFERTMQLNYFGSVRLIMGFAPAMLERRRGHVVNISSIGVLTNAPRFSAYVASKSALDTFSRCAAAEWSDRNVTFTTINMPLVKTPMIAPTKIYDSVPTLTPDEAAEMVADAIVYRPKRIATRLGIFAQVMQALAPKMGEIVMNTGYRMFPDSPAAAGSRSGAKPKVSSEQVAFAAIMRGIYW
modifications: Marinobacter algicola DG893
Activity, μmol/min/mg protein [2]: 4 μmol/min/mg protein

B6: Short chain alcohol dehydrogenase-like protein from Hahella chejuensis: short-chain dehydrogenase from Hahella chejuensis (Uniprot Q2SCE0; SEQ ID NO: 17) (protein, listed as Hahella chejuensis)
chain: MNYFVTGGTGFIGRFLVPKLLKRGGTVYLLVREASLPKLDELRERWNASDEQVVGVVGDLAQPMLGVSEKDAAMLRGKVGHFFHLAAIYDMQASAESQEQANIEGTRNAVKLADSLKAACFHHVSSIAAAGLYRGIFREDMFEEAEKLDNPYLRTKHESEKVVREECQTPWRVYRPGMVVGHSKTGEIDKIDGPYYFFKLIQKLRSALPQWMPTVGLEGGRINIVPVDFVVDAMDHIAHAEGEDGKCFHLTDPDPYKVGEILNIFAEAGHAPKMAMRIDARMFGFIPPMIRQGIARLPPVQRMKNAVLNDLGIPDEVMSFINYPTRFDNRETERLLKGTAIAVPRLQDYSPAIWDYWERHLDPDLHKDRTLRGAVEGRVCVITGATSGIGLSAARKLAEAGAKVVIAARTLEKLQEVKKELEELGGEVYEYSVDLSDLEDCDRFVANVLKDLGHVDVLVNNAGRSIRRSIQHAFDRFHDFERTMQLNYFGSLRLIMGFAPSMLERRRGHIVNISSIGVLTNAPRFSAYVASKAALDAFSRCAAAEFSDKNVTFTTINMPLVRTPMISPTKIYDSVPTLTPEEAADLVAEAIIHRPKRIATRLGVFAQVLHSMAPKFSEIIMNTGFKMFPDSSAATGGKDGEKPKVSTEQVAFAAIMRGIHW
Activity, μmol/min/mg protein [2]: 4.9 μmol/min/mg protein

B7: Short chain alcohol dehydrogenase-like protein from Marinobacter sp. ELB17 (SEQ ID NO: 15): short-chain dehydrogenase from Marinobacter sp. ELB17 (Uniprot A3JCC5) (protein)
chain: MNYFVTGGTGFIGRFLIARLLARGAIVHVLVREQSVQKLADLREKLGADEKQIKAVVGDLTAPGLGLDKKTLKQLSGKIDHFFHLAAIYDMSASEESQQAANIDGTRAAVAAAEALGAGIFHHVSSIAVAGLFKGTFREDMFAEAGKLDHPYFSTKHESERVVRDECKLPFRIYRPGMVIGDSATGEMDKVDGPYYFFKMIQKIRGALPQWVPTIGLEGGRLNIVPVNFVADALDHIAHLPDEDGKCFHLVDSDPYKVGEILNIFCEAGHAPKMGMRIDSRMFGFVPPFIRQSLKNLPPVKRMGRALLDDLGIPASVLSFINYPTRFDARETERVLQGTGIEVPRLPDYAPVIWDYWERNLDPDLFTDRTLRGTVEGKVCVVTGATSGIGLATAEKLADAGAILVIGARTQETLDQVSAQLNARGADVHAYQCDFADMDACDRFIQTVSENHGAVDVLINNAGRSIRRSLDKSFDRFHDFERTMQLNYFGSLRLIMGFAPAMLERRRGHIINISSIGVLTNAPRFSAYVASKAALDSFSRCAAAEWSDRHVCFTTINMPLVKTPMIAPTKIYDSVPTLSPEEAADMVVNAIVYRPKRIATRMGVFAQVLNAVAPKASEILMNTGYKMFPDSMPKKGKEVSAEKGASTDQVAFAAIMRGIHW
modifications: Marinobacter sp. ELB17
Activity, μmol/min/mg protein [2]: 1.2 μmol/min/mg protein
